# Data from IntAct's records for PubMed 31515488.
# B1: Beta-taxilin (Homo sapiens), Q8N3L3 (parent)
# chain: MEANHSEQLSAERQSTPPGDSSSLPSHNGLEKEDGQDSPTPVQPPEKEASVHPDISEELNRQLEDIINTYGSAASTAGKEGSARASEQPENAESPDNEDGDCEETTEEAGREPVASGEPPTVKEPVSNKEQKLEKKILKGLGKEANLLMQNLNKLQTPEEKFDFLFKKYAELLDEHRTEQKKLKLLQKKQVQIQKEKDQLQGEHSRAILARSKLESLCRELQRHNKTLKEEALQRAREEEEKRKEITSHFQSTLTDIQGQIEQQSERNMKLCQENTELAEKLKSIIDQYELREEHLDKIFKHRELQQKLVDAKLEQAQEMMKEAEERHKREKEYLLNQAAEWKLQAKVLKEQETVLQAQLTLYSGRFEEFQSTLTKSNEVFATFKQEMDKTTKKMKKLEKDTATWKARFENCNKALLDMIEEKALRAKEYECFVMKIGRLENLCRALQEERNELHKKIRDAEISEKDDQSQHNSDEEPESNVSVDQEIDAEEVNSVQTAVKNLATAFMIIHHPESTPHQSKETQPEIGSSQESADAALKEPEQPPLIPSRDSESPLPPLTPQAEAEGGSDAEPPSKASNSPAGLGAETQCEGLPVGAQADQASWKPEAEASGQAPQAPTEASLQKMEADVPAPACAAEEHVAAMVPACEPSRQPPRAAAEELPVGASAGPQPRNVADTNLEGVD
# partner: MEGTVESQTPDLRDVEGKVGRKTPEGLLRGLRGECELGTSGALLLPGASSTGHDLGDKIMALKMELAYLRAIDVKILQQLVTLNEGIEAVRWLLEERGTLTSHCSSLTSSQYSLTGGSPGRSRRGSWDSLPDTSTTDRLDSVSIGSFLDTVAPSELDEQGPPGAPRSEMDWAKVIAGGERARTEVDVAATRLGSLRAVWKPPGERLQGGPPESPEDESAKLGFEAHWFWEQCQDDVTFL
# B2: Consortin (Homo sapiens), Q6PJW8 (parent)
# chain: MDDSDTPTYYLQIEPQDGCHPGDSVERSVTCLPSASDENENQLDGDGHEHLTSSDSAMGKPQVSEQDSLNNNESCTLSCEVAAGENLQNTLCEASRDEQAFLGKDKKIPGKRSPRSKKGTAKKIPPGLFSGDIAPLMQEKVLSAVTYAVDDEEAAEVNANEQPEAPKLVLQSLFSLIRGEVEQLDSRALPLCLHQIAESYFQEEDYEKAMKFIQLERLYHEQLLANLSAIQEQWETKWKTVQPHTVTALRNSEKGFNGEDFERLTKICATHQDPLLSKHKIAAVEKSQERKCSTQLLVSEDPKEGGATTKESESKTCLGTESSKESQHTVEPLGSSPCCHQMDVQTDSPSLSVTAGKDHMEELLCSAEATLALHTQSSETAGSPSGPDSSEDACEDDSRLQLAQTEACQDVARIEGIAEDPKVFLSSKSKTEPLISPGCDRIPPALISEGKYSQAQRKELRLPLRDASEALPTDQLENNELNELQQPDLTDSDGKSPQAQADSDGSENVLCGNNQISDLGILLPEVCMAPEEKGDKDDQLNKETEDYLNSLLEGCLKDTEDSLSYEDNQDDDSDLLQDLSPEEASYSLQENLPSDESCLSLDDLAKRIEIAEVVPTEGLVSILKKRNDTVGDHPAQMQHKPSKRRVRFQEIDDSLDQDEVGGGSCILLVLLCIATVFLSVGGTALYCTFGDMESPVCTDFADNMDFYYTKLLQGVAELKHWIYLS
# B3: Microtubule-associated tumor suppressor candidate 2 (Homo sapiens), Q5JR59-3 (parent)
# chain: MGHCCCKPYNCLQCLDKTNESALVKEKELSIELANIRDEVAFHTAKCEKLQKEKEELERRFEDEVKRLGWQQQAELQELEERLQLQFEAEMARLQEEHGDQLLSIRCQHQEQVEDLTASHDAALLEMENNHTVAITILQDDHDHKVQELMSTHELEKKELEENFEKLRLSLQDQVDTLTFQSQSLRDRARRFEEALRKNTEEQLEIALAPYQHLEEDMKSLKQVLEMKNQQIHEQEKKILELEKLAEKNIILEEKIQVLQQQNEDLKARIDQNTVVTRQLSEENANLQEYVEKETQEKKRLSRTNEELLWKLQTGDPTSPIKLSPTSPVYRGSSSGPSSPARVSTTPR
# partner: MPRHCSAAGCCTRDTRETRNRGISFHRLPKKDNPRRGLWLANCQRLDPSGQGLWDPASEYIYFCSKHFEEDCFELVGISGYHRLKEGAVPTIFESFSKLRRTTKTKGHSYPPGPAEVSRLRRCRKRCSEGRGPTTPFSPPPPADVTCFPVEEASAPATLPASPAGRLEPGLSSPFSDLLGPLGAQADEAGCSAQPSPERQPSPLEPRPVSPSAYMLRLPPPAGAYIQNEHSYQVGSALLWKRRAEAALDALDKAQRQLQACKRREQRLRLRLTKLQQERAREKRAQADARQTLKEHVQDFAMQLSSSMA
# B4: Protein FAM9B (Homo sapiens), Q8IZU0 (parent)
# chain: MAAWGKKHAGKDPVRDECEERNRFTETREEDVTDEHGEREPFAETDEHTGANTKKPEDTAEDLTAKRKRMKMDKTCSKTKNKSKHALRKKQLKRQKRDYIHSLKLLNVLEEYITDEQKEEEEEEGEEEELIRIFQEQQKKWQQYRSVRRERLKEMKLLRDQFVKALEDFEDLCDRVFSDEDSELDN
# partner: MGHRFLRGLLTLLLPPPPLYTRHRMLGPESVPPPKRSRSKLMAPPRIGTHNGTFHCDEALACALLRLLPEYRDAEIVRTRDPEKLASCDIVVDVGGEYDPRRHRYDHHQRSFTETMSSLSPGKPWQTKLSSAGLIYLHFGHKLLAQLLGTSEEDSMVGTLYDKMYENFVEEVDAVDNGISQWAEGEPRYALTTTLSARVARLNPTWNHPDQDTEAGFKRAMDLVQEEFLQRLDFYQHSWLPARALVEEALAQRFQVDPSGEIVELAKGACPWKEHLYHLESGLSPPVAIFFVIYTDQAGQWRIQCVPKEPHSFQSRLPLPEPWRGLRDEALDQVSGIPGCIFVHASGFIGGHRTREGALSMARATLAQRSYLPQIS
# B5: Zinc finger CCHC domain-containing protein 10 (Homo sapiens), Q8TBK6 (parent)
# chain: MATPMHRLIARRQAFDTELQPVKTFWILIQPSIVISEANKQHVRCQKCLEFGHWTYECTGKRKYLHRPSRTAELKKALKEKENRLLLQQSIGETNVERKAKKKRSKSVTSSSSSSSDSSASDSSSESEETSTSSSSEDSDTDESSSSSSSSASSTTSSSSSDSDSDSSSSSSSSTSTDSSSDDEPPKKKKKK
# partner: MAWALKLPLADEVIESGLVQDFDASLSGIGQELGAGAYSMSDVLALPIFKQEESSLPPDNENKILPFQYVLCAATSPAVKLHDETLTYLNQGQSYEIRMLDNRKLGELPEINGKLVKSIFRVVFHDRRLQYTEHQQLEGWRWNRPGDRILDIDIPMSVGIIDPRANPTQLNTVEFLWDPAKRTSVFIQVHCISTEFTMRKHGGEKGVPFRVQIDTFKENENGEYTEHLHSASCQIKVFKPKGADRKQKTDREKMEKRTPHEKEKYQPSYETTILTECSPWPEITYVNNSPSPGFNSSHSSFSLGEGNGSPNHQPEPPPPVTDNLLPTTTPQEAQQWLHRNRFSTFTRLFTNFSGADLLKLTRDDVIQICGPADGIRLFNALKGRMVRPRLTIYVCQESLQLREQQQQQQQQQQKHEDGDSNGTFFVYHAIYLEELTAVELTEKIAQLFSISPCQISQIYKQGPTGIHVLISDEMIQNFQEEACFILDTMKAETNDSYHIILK
# B6: Microtubule-associated tumor suppressor candidate 2 (Homo sapiens), Q5JR59-3 (parent)
# chain: B3 chain
# partner: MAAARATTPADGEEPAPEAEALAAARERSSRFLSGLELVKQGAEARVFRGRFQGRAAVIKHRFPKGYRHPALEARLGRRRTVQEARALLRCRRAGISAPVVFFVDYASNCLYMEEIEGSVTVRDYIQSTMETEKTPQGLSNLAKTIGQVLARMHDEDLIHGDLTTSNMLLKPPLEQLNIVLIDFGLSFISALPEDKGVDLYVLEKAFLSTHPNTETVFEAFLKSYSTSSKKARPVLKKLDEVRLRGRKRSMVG
# B7: Charged multivesicular body protein 7 (Homo sapiens), Q8WUX9 (parent)
# chain: MWSPEREAEAPAGGDPAGLLPPEWEEDEERMSFLFSAFKRSREVNSTDWDSKMGFWAPLVLSHSRRQGVVRLRLRDLQEAFQRKGSVPLGLATVLQDLLRRGELQRESDFMASVDSSWISWGVGVFLLKPLKWTLSNMLGDNKVPAEEVLVAVELLKEKAEEVYRLYQNSPLSSHPVVALSELSTLCANSCPDERTFYLVLLQLQKEKRVTVLEQNGEKIVKFARGPRAKVSPVNDVDVGVYQLMQSEQLLSRKVESLSQEAERCKEEARRACRAGKKQLALRSLKAKQRTEKRIEALHAKLDTVQGILDRIYASQTDQMVFNAYQAGVGALKLSMKDVTVEKAESLVDQIQELCDTQDEVSQTLAGGVTNGLDFDSEELEKELDILLQDTTKEPLDLPDNPRNRHFTNSVPNPRISDAELEAELEKLSLSEGGLVPSSKSPKRQLEPTLKPL
# partner: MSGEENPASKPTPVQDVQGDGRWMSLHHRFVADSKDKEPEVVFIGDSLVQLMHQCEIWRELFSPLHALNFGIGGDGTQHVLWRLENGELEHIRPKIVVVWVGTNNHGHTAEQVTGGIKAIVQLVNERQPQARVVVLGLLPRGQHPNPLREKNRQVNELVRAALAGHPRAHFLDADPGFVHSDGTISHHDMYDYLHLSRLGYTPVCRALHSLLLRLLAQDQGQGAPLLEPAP
# B8: Zinc finger protein 511 (Homo sapiens), Q8NB15 (parent)
# chain: MQLPPALCARLAAGPGAAEPLPVERDPAAGAAPFRFVARPVRFPREHQFFEDGDVQRHLYLQDVIMQVADVPEKPRVPAFACQVAGCCQVFDALDDYEHHYHTLHGNVCSFCKRAFPSGHLLDAHILEWHDSLFQILSERQDMYQCLVEGCTEKFKTSRDRKDHMVRMHLYPADFRFDKPKKSRSPASAEAPGDSGERSEGEAMEICSEPVAASPAPAGERRIYRHRIPSTICFGQGAARGFKSNKKKTKQC
# partner: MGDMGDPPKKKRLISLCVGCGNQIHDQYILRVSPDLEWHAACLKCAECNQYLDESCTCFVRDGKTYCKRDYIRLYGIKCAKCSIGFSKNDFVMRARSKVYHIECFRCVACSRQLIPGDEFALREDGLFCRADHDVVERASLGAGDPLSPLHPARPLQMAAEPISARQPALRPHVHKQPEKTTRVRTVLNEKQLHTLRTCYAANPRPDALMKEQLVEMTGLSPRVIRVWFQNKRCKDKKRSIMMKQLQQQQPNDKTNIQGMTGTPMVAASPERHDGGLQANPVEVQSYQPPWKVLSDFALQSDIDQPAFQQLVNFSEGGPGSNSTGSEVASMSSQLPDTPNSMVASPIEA
# Variants of: B1
# Settings: with lura1_human LURAP1, Q96LR2
row,effect of a mutation on the interaction,Variant
1,with no effect,T361A
2,with no effect,T523I

# Variants of: B2
# Settings: with rop1a_human ROPN1, Q9HAT0
# Sequence of rop1a_human ROPN1, Q9HAT0 (Q9HAT0 whole entry): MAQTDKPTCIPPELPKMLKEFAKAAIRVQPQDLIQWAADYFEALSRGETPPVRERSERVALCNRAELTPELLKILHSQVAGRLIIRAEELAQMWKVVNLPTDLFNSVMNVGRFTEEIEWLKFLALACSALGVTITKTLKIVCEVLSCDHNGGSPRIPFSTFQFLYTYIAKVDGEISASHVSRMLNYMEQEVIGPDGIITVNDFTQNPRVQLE
row,effect of a mutation on the interaction,Variant
1,with no effect,Q183R
2,with no effect,R399C

# Variants of: B3
# Settings: with thap7_human THAP7, Q9BT49
row,effect of a mutation on the interaction,Variant
1,with no effect,A89V

# Variants of: B4
# Settings: with myg1_human MYG1, Q9HB07
row,effect of a mutation on the interaction,Variant
1,with no effect,R23H

# Variants of: B5
# Settings: with tfcp2_human TFCP2, Q12800
row,effect of a mutation on the interaction,Variant
1,with no effect,S153P

# Variants of: B6
# Settings: with prpk_human TP53RK
row,effect of a mutation on the interaction,Variant
1,with no effect,A89V

# Variants of: B7
# Settings: with pa1b3_human PAFAH1B3, Q15102
row,effect of a mutation on the interaction,Variant
1,with no effect,R228C

# Variants of: B8
# Settings: with isl1_human ISL1, P61371
row,effect of a mutation on the interaction,Variant
1,with no effect,S195N
2,with no effect,D123N
